These results are taken from patent US10010560 (dated 2018).

In assay [1] the target is HSP70 (ADP-bound) (human). The assay is described as follows: ITC, ADP. On the technique in general: Isothermal titration calorimetry measures the heat released or taken up as one component is titrated into another.
The target in assay [2] is HSP70 (ATP-bound) (human). The assay is described as follows: ITC, ATP.
Chain of HSP70 (ATP-bound) (human) (chain, as listed by the source): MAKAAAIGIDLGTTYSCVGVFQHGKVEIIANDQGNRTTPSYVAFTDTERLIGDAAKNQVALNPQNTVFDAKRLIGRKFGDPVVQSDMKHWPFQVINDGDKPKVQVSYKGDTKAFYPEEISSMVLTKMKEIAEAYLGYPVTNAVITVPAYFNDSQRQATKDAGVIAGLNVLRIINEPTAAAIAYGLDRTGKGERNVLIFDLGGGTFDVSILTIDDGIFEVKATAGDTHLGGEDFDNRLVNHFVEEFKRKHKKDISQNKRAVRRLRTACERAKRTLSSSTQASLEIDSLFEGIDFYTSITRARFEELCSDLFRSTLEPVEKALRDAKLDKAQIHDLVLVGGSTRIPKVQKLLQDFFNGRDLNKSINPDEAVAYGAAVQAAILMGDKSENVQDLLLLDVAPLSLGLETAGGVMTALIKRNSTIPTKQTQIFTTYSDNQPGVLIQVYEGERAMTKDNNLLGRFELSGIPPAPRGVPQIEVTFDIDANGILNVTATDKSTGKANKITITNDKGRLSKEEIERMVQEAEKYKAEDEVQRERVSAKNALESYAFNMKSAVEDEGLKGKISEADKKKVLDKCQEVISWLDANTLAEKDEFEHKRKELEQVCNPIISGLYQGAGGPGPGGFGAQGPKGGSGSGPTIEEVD

Chain of HSP70 (ADP-bound) (human) (chain, as listed by the source): as above

For the molecule NRLLLTG [NRLLLTG peptide], the Kd (usually the concentration at which binding is half-saturated) in assay [1] amounted to 10 µM; in assay [2] it was 1250 µM.
